Measured values as given in the supplement of paper PMC9112550, “Optimization of the antimicrobial peptide Bac7 by deep mutational scanning” (BMC Biology, 2022).

System: Escherichia coli TOP10
Test: shrunken log2 fold change of peptide-encoding DNA abundance (4.5 h post-induction vs induction); higher = less antimicrobial activity (less host growth inhibition)
Conditions: time post-induction: 4.5 h; library: site-saturation at positions 5, 18, 19, 20
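Note: peptides expressed intracellularly from a pBAD plasmid library in pooled LB shake-flask culture, induced with 0.3% L-arabinose, DNA abundance read by NGS, three biological replicates, DESeq2 with apeglm shrinkage.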

## RRIRWRPPRLPRPRPRPLPQPRP
  shrunken log2 fold change: 0.248

## RRIRHRPPRLPRPRPRPEICPRP
  shrunken log2 fold change: -0.00961

## RRIRARPPRLPRPRPRPHKSPRP
  shrunken log2 fold change: 0.42

## RRIRERPPRLPRPRPRPRNFPRP
  shrunken log2 fold change: -0.456

## RRIRGRPPRLPRPRPRPHHWPRP
  shrunken log2 fold change: 0.431

## RRIRSRPPRLPRPRPRPMPFPRP
  shrunken log2 fold change: -0.0591

## RRIRPRPPRLPRPRPRPWMPPRP
  shrunken log2 fold change: -0.00504

## RRIRFRPPRLPRPRPRPCQGPRP
  shrunken log2 fold change: -0.198

## RRIRSRPPRLPRPRPRPWRAPRP
  shrunken log2 fold change: 0.183

## RRIRTRPPRLPRPRPRPEMRPRP
  shrunken log2 fold change: 0.825

## RRIRHRPPRLPRPRPRPRMCPRP
  shrunken log2 fold change: -0.0257

## RRIRERPPRLPRPRPRPHATPRP
  shrunken log2 fold change: 0.238

## RRIRMRPPRLPRPRPRPCCKPRP
  shrunken log2 fold change: -0.233

## RRIRDRPPRLPRPRPRPTDGPRP
  shrunken log2 fold change: -0.107

## RRIRIRPPRLPRPRPRPESTPRP
  shrunken log2 fold change: -0.325

## RRIRCRPPRLPRPRPRPTIPPRP
  shrunken log2 fold change: -0.417

## RRIRARPPRLPRPRPRPPPPPRP
  shrunken log2 fold change: 1.46

## RRIRDRPPRLPRPRPRPNTTPRP
  shrunken log2 fold change: -0.0542

## RRIRFRPPRLPRPRPRPIPTPRP
  shrunken log2 fold change: 0.0793

## RRIRSRPPRLPRPRPRPTEMPRP
  shrunken log2 fold change: 0.233

## RRIRLRPPRLPRPRPRPGFMPRP
  shrunken log2 fold change: -0.382

## RRIRSRPPRLPRPRPRPFQMPRP
  shrunken log2 fold change: 0.00561

## RRIRKRPPRLPRPRPRPCCQPRP
  shrunken log2 fold change: -0.102

## RRIRARPPRLPRPRPRPMFPPRP
  shrunken log2 fold change: -0.147

## RRIRNRPPRLPRPRPRPATLPRP
  shrunken log2 fold change: -0.365

## RRIRARPPRLPRPRPRPHLDPRP
  shrunken log2 fold change: 0.324

## RRIRQRPPRLPRPRPRPTWEPRP
  shrunken log2 fold change: 0.0645

## RRIRHRPPRLPRPRPRPIMKPRP
  shrunken log2 fold change: -0.317

## RRIRHRPPRLPRPRPRPSTQPRP
  shrunken log2 fold change: -0.0473

## RRIRTRPPRLPRPRPRPFCVPRP
  shrunken log2 fold change: -0.229

## RRIRFRPPRLPRPRPRPIYEPRP
  shrunken log2 fold change: -0.632

## RRIRARPPRLPRPRPRPYDWPRP
  shrunken log2 fold change: 0.0315

## RRIRNRPPRLPRPRPRPSNNPRP
  shrunken log2 fold change: -0.96

## RRIRQRPPRLPRPRPRPRFRPRP
  shrunken log2 fold change: 0.0281

## RRIRWRPPRLPRPRPRPWVEPRP
  shrunken log2 fold change: 0.0386

## RRIRSRPPRLPRPRPRPYVTPRP
  shrunken log2 fold change: -0.266

## RRIRVRPPRLPRPRPRPYCEPRP
  shrunken log2 fold change: -0.0433

## RRIRIRPPRLPRPRPRPRGQPRP
  shrunken log2 fold change: 0.413

## RRIRNRPPRLPRPRPRPAYCPRP
  shrunken log2 fold change: -0.0951

## RRIRDRPPRLPRPRPRPEHQPRP
  shrunken log2 fold change: -0.012

## RRIRIRPPRLPRPRPRPHPVPRP
  shrunken log2 fold change: 0.0514

## RRIRNRPPRLPRPRPRPMKKPRP
  shrunken log2 fold change: 0.00302

## RRIRNRPPRLPRPRPRPLIVPRP
  shrunken log2 fold change: -0.332

## RRIRHRPPRLPRPRPRPFEQPRP
  shrunken log2 fold change: -0.283

## RRIRGRPPRLPRPRPRPQFYPRP
  shrunken log2 fold change: 0.0417

## RRIRARPPRLPRPRPRPHTKPRP
  shrunken log2 fold change: 0.0902

## RRIRNRPPRLPRPRPRPMHEPRP
  shrunken log2 fold change: 0.0425

## RRIRNRPPRLPRPRPRPKYWPRP
  shrunken log2 fold change: -0.387

## RRIRIRPPRLPRPRPRPCNVPRP
  shrunken log2 fold change: -0.449

## RRIRYRPPRLPRPRPRPVRCPRP
  shrunken log2 fold change: 0.0877

## RRIRQRPPRLPRPRPRPTQVPRP
  shrunken log2 fold change: -0.0311

## RRIRERPPRLPRPRPRPHKIPRP
  shrunken log2 fold change: -0.13

## RRIRVRPPRLPRPRPRPEFDPRP
  shrunken log2 fold change: 0.197

## RRIRYRPPRLPRPRPRPIFSPRP
  shrunken log2 fold change: -1.43

## RRIRNRPPRLPRPRPRPLRDPRP
  shrunken log2 fold change: 0.521

## RRIRRRPPRLPRPRPRPFKPPRP
  shrunken log2 fold change: 0.174

## RRIRSRPPRLPRPRPRPRMVPRP
  shrunken log2 fold change: 0.174

## RRIRYRPPRLPRPRPRPHLDPRP
  shrunken log2 fold change: -0.185

## RRIRQRPPRLPRPRPRPWMKPRP
  shrunken log2 fold change: 0.0212

## RRIRSRPPRLPRPRPRPARWPRP
  shrunken log2 fold change: 0.224

## RRIRGRPPRLPRPRPRPMGMPRP
  shrunken log2 fold change: 0.886

## RRIRGRPPRLPRPRPRPCTLPRP
  shrunken log2 fold change: 0.321

## RRIRTRPPRLPRPRPRPKACPRP
  shrunken log2 fold change: 0.0653

## RRIRERPPRLPRPRPRPNWFPRP
  shrunken log2 fold change: -0.0607

## RRIRPRPPRLPRPRPRPVHIPRP
  shrunken log2 fold change: -0.208

## RRIRNRPPRLPRPRPRPNKVPRP
  shrunken log2 fold change: -0.642

## RRIRYRPPRLPRPRPRPDCCPRP
  shrunken log2 fold change: -0.115

## RRIRRRPPRLPRPRPRPQWPPRP
  shrunken log2 fold change: 0.00418

## RRIRERPPRLPRPRPRPMYCPRP
  shrunken log2 fold change: -0.064

## RRIRYRPPRLPRPRPRPGRIPRP
  shrunken log2 fold change: 0.0959

## RRIRMRPPRLPRPRPRPYQTPRP
  shrunken log2 fold change: -0.0231

## RRIRWRPPRLPRPRPRPKHIPRP
  shrunken log2 fold change: -0.41

## RRIRHRPPRLPRPRPRPPIVPRP
  shrunken log2 fold change: -0.252

## RRIRQRPPRLPRPRPRPGKGPRP
  shrunken log2 fold change: 0.00842

## RRIRTRPPRLPRPRPRPNSFPRP
  shrunken log2 fold change: -0.00453

## RRIRPRPPRLPRPRPRPYAHPRP
  shrunken log2 fold change: -0.0338

## RRIRPRPPRLPRPRPRPMQFPRP
  shrunken log2 fold change: 0.231

## RRIRHRPPRLPRPRPRPCCYPRP
  shrunken log2 fold change: -0.496

## RRIRHRPPRLPRPRPRPRWFPRP
  shrunken log2 fold change: 0.161

## RRIRMRPPRLPRPRPRPHNGPRP
  shrunken log2 fold change: -0.337

## RRIRFRPPRLPRPRPRPWIFPRP
  shrunken log2 fold change: -0.00568

## RRIRGRPPRLPRPRPRPQGMPRP
  shrunken log2 fold change: 0.0957

## RRIRTRPPRLPRPRPRPLDKPRP
  shrunken log2 fold change: -0.18

## RRIRQRPPRLPRPRPRPCGRPRP
  shrunken log2 fold change: 0.411

## RRIRYRPPRLPRPRPRPCHYPRP
  shrunken log2 fold change: -0.00968

## RRIRMRPPRLPRPRPRPPFHPRP
  shrunken log2 fold change: 0.0707

## RRIRWRPPRLPRPRPRPDGAPRP
  shrunken log2 fold change: 0.227

## RRIRMRPPRLPRPRPRPYIAPRP
  shrunken log2 fold change: -0.038

## RRIRFRPPRLPRPRPRPHEIPRP
  shrunken log2 fold change: -0.0536

## RRIRWRPPRLPRPRPRPMVPPRP
  shrunken log2 fold change: -0.0589

## RRIRARPPRLPRPRPRPPVGPRP
  shrunken log2 fold change: 1.18

## RRIRMRPPRLPRPRPRPEIEPRP
  shrunken log2 fold change: 0.0729

## RRIRSRPPRLPRPRPRPMVLPRP
  shrunken log2 fold change: 0.114

## RRIRLRPPRLPRPRPRPEWRPRP
  shrunken log2 fold change: -0.0482

## RRIRARPPRLPRPRPRPWLRPRP
  shrunken log2 fold change: 0.228

## RRIRWRPPRLPRPRPRPYNRPRP
  shrunken log2 fold change: -1.09

## RRIRNRPPRLPRPRPRPQEHPRP
  shrunken log2 fold change: 0.422

## RRIRMRPPRLPRPRPRPYHEPRP
  shrunken log2 fold change: -0.391

## RRIRFRPPRLPRPRPRPHRRPRP
  shrunken log2 fold change: 0.189

## RRIRSRPPRLPRPRPRPITNPRP
  shrunken log2 fold change: 0.266

## RRIRQRPPRLPRPRPRPKLAPRP
  shrunken log2 fold change: -0.0518

## RRIRHRPPRLPRPRPRPPQRPRP
  shrunken log2 fold change: 0.248

## RRIRDRPPRLPRPRPRPFPAPRP
  shrunken log2 fold change: 0.0806

## RRIRERPPRLPRPRPRPHWLPRP
  shrunken log2 fold change: -0.128

## RRIRERPPRLPRPRPRPINKPRP
  shrunken log2 fold change: -0.506

## RRIRIRPPRLPRPRPRPCFCPRP
  shrunken log2 fold change: -0.422

## RRIRYRPPRLPRPRPRPKDGPRP
  shrunken log2 fold change: -0.613

## RRIRWRPPRLPRPRPRPVEMPRP
  shrunken log2 fold change: 0.206

## RRIRNRPPRLPRPRPRPGLEPRP
  shrunken log2 fold change: -0.0966

## RRIRARPPRLPRPRPRPVSWPRP
  shrunken log2 fold change: 0.813

## RRIRGRPPRLPRPRPRPDESPRP
  shrunken log2 fold change: 0.0316

## RRIRDRPPRLPRPRPRPVTPPRP
  shrunken log2 fold change: 0.214

## RRIRWRPPRLPRPRPRPYIYPRP
  shrunken log2 fold change: -0.541

## RRIRQRPPRLPRPRPRPQMNPRP
  shrunken log2 fold change: -0.72

## RRIRSRPPRLPRPRPRPPLIPRP
  shrunken log2 fold change: 0.191

## RRIRARPPRLPRPRPRPHEWPRP
  shrunken log2 fold change: 0.311

## RRIRGRPPRLPRPRPRPRREPRP
  shrunken log2 fold change: 0.381

## RRIRCRPPRLPRPRPRPLNGPRP
  shrunken log2 fold change: -0.444

## RRIRSRPPRLPRPRPRPFAQPRP
  shrunken log2 fold change: 0.185

## RRIRQRPPRLPRPRPRPKFSPRP
  shrunken log2 fold change: -0.914

## RRIRERPPRLPRPRPRPVFFPRP
  shrunken log2 fold change: 0.0585

## RRIRDRPPRLPRPRPRPAMHPRP
  shrunken log2 fold change: 0.527

## RRIRNRPPRLPRPRPRPCSSPRP
  shrunken log2 fold change: -0.0135

## RRIRSRPPRLPRPRPRPTHKPRP
  shrunken log2 fold change: 0.202

## RRIRVRPPRLPRPRPRPKTMPRP
  shrunken log2 fold change: 0.196

## RRIRMRPPRLPRPRPRPLPFPRP
  shrunken log2 fold change: -0.117

## RRIRKRPPRLPRPRPRPQTMPRP
  shrunken log2 fold change: 0.0588

## RRIRLRPPRLPRPRPRPNQLPRP
  shrunken log2 fold change: -0.407

## RRIRSRPPRLPRPRPRPYADPRP
  shrunken log2 fold change: -0.179

## RRIRIRPPRLPRPRPRPHITPRP
  shrunken log2 fold change: -0.66

## RRIRYRPPRLPRPRPRPNLVPRP
  shrunken log2 fold change: -0.0754

## RRIRARPPRLPRPRPRPNWFPRP
  shrunken log2 fold change: 0.0236

## RRIRFRPPRLPRPRPRPGPYPRP
  shrunken log2 fold change: -0.0125

## RRIRSRPPRLPRPRPRPSSGPRP
  shrunken log2 fold change: -0.0991

## RRIRMRPPRLPRPRPRPFPTPRP
  shrunken log2 fold change: 0.153

## RRIRERPPRLPRPRPRPMGMPRP
  shrunken log2 fold change: -0.00992

## RRIRVRPPRLPRPRPRPPRCPRP
  shrunken log2 fold change: 0.324

## RRIRQRPPRLPRPRPRPDLWPRP
  shrunken log2 fold change: 0.514

## RRIRDRPPRLPRPRPRPMVCPRP
  shrunken log2 fold change: 0.141

## RRIRLRPPRLPRPRPRPGLIPRP
  shrunken log2 fold change: 0.045

## RRIRLRPPRLPRPRPRPSTPPRP
  shrunken log2 fold change: -0.207

## RRIRNRPPRLPRPRPRPCTKPRP
  shrunken log2 fold change: 0.00474

## RRIRVRPPRLPRPRPRPWFRPRP
  shrunken log2 fold change: -0.304

## RRIRWRPPRLPRPRPRPYGPPRP
  shrunken log2 fold change: -0.0264

## RRIRHRPPRLPRPRPRPIRFPRP
  shrunken log2 fold change: -0.00142

## RRIRARPPRLPRPRPRPYPDPRP
  shrunken log2 fold change: -0.0126

## RRIRSRPPRLPRPRPRPHHLPRP
  shrunken log2 fold change: -0.903

## RRIRQRPPRLPRPRPRPWCIPRP
  shrunken log2 fold change: 0.0342

## RRIRSRPPRLPRPRPRPMEVPRP
  shrunken log2 fold change: -0.00803

## RRIRWRPPRLPRPRPRPCLQPRP
  shrunken log2 fold change: -0.21
